Test results: paper PMC8857273

How the values were obtained:
[1] = system: T1, His6-SUMO-MucR2 (Sinorhizobium fredii CCBAU45436 (SF45436)), ORF:a672ea6f; assay: EMSA; conditions: EMSA: 25 mM Tris pH 7.5, 100 mM KCl, 5 mM MgCl2, 5% glycerol, 0.05% dodecyl maltoside, 0.5 mg/mL BSA, 0.1 mg/mL sonicated salmon sperm DNA; room temperature …
T1 sequence: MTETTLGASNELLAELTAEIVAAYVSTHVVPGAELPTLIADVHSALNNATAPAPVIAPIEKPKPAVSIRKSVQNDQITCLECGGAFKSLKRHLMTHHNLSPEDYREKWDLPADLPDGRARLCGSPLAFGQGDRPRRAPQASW

[2] = system: T2, His6-SUMO-MucR1 (Sinorhizobium fredii CCBAU45436 (SF45436)), ORF:2d010df8; assay: EMSA; conditions: EMSA: 25 mM Tris pH 7.5, 100 mM KCl, 5 mM MgCl2, 5% glycerol, 0.05% dodecyl maltoside, 0.5 mg/mL BSA, 0.1 mg/mL sonicated salmon sperm DNA; room temperature …
T2 sequence: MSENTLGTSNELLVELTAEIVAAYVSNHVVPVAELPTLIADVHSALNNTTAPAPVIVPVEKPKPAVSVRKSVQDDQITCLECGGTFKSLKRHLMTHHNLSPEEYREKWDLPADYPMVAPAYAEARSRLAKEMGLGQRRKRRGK

With “CATATTAGATTCGGAAGGACCGACGACGCCCCTCGATCGCTGCCAGTCCACTGACGATTGTTTTGAAGTGTTCAGCTTCCTGGAGATATAACTTCCAAAAGCCGAAATAAAGTTTGGATCATCTTTGATTTTATACAGTTCTCTGCTACTGCCAGAGCGTCTCCGACTTGGTGCATTTTAGCAACAGGCGTCATTCGAAAGTAAAGCTCACTCATCTATATTCGAGCGATTGGCGGCATTGAAGGCACAG (double strand) [visN promoter probe (250 bp)]” the binding [1] was “no binding” and the binding [2] was “binds”.
